Data: publication PMC10027727, “Structure and dynamics of the Arabidopsis O-fucosyltransferase SPINDLY” (Nature Communications, 2023)

T1: Myc-spy Δ216 (deletion of residues 1-216, the N-terminal peptide and TPRs 1-5) (Arabidopsis thaliana, UniProt Q96301 217-914)
T1 construct: source: N. benthamiana, transient expression by agroinfiltration, in protein extract
T1 sequence (looked up): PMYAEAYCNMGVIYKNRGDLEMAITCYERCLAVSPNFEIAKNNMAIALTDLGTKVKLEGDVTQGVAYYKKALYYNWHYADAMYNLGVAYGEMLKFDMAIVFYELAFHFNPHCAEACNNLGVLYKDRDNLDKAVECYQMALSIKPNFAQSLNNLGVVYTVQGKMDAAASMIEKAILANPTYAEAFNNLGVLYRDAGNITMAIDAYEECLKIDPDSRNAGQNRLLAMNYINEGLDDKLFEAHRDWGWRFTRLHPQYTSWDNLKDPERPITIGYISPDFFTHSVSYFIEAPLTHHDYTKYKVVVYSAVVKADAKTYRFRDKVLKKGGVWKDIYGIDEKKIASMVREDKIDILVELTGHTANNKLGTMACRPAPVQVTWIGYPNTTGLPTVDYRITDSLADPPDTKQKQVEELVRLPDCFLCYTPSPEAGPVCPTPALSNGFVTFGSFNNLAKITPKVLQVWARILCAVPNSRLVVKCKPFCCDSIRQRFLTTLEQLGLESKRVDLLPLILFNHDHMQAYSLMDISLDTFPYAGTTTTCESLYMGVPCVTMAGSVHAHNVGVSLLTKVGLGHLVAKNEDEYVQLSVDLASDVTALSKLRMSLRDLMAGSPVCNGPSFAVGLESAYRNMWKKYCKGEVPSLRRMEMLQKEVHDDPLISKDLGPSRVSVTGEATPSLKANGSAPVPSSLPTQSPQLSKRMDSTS

B1: Recombinant full-length Arabidopsis thaliana SPINDLY (SPY-WT-TEV-His10-Strep) (enzyme, UniProt Q96301 1-914, looked up)
chain: MVGLEDDTERERSPVVENGFSNGSRSSSSSAGVLSPSRKVTQGNDTLSYANILRARNKFADALALYEAMLEKDSKNVEAHIGKGICLQTQNKGNLAFDCFSEAIRLDPHNACALTHCGILHKEEGRLVEAAESYQKALMADASYKPAAECLAIVLTDLGTSLKLAGNTQEGIQKYYEALKIDPHYAPAYYNLGVVYSEMMQYDNALSCYEKAALERPMYAEAYCNMGVIYKNRGDLEMAITCYERCLAVSPNFEIAKNNMAIALTDLGTKVKLEGDVTQGVAYYKKALYYNWHYADAMYNLGVAYGEMLKFDMAIVFYELAFHFNPHCAEACNNLGVLYKDRDNLDKAVECYQMALSIKPNFAQSLNNLGVVYTVQGKMDAAASMIEKAILANPTYAEAFNNLGVLYRDAGNITMAIDAYEECLKIDPDSRNAGQNRLLAMNYINEGLDDKLFEAHRDWGWRFTRLHPQYTSWDNLKDPERPITIGYISPDFFTHSVSYFIEAPLTHHDYTKYKVVVYSAVVKADAKTYRFRDKVLKKGGVWKDIYGIDEKKIASMVREDKIDILVELTGHTANNKLGTMACRPAPVQVTWIGYPNTTGLPTVDYRITDSLADPPDTKQKQVEELVRLPDCFLCYTPSPEAGPVCPTPALSNGFVTFGSFNNLAKITPKVLQVWARILCAVPNSRLVVKCKPFCCDSIRQRFLTTLEQLGLESKRVDLLPLILFNHDHMQAYSLMDISLDTFPYAGTTTTCESLYMGVPCVTMAGSVHAHNVGVSLLTKVGLGHLVAKNEDEYVQLSVDLASDVTALSKLRMSLRDLMAGSPVCNGPSFAVGLESAYRNMWKKYCKGEVPSLRRMEMLQKEVHDDPLISKDLGPSRVSVTGEATPSLKANGSAPVPSSLPTQSPQLSKRMDSTS
modifications: fully auto-O-fucosylated (sites not mapped for the insect-cell protein)
notes: SPINDLY (SPY), Arabidopsis thaliana, full length (101.4 kDa), UniProt Q96301; The tag end is read from the construct name SPY-WT-TEV-His10-Strep; A TEV site lies between SPY and the tags; no cleavage is described; also called WT SPY; apo SPY; source: Trichoplusia ni (High Five) insect cells, baculovirus, purified (Talon, Strep-Tactin, SEC)
B2: FLAG-RGA (35S:FLAG-RGA, pEG100-3xFR; contains a 6xHis-3xFLAG tag) (natural protein, Arabidopsis, UniProt Q9SLH3 1-587, looked up)
chain: MKRDHHQFQGRLSNHGTSSSSSSISKDKMMMVKKEEDGGGNMDDELLAVLGYKVRSSEMAEVALKLEQLETMMSNVQEDGLSHLATDTVHYNPSELYSWLDNMLSELNPPPLPASSNGLDPVLPSPEICGFPASDYDLKVIPGNAIYQFPAIDSSSSSNNQNKRLKSCSSPDSMVTSTSTGTQIGGVIGTTVTTTTTTTTAAGESTRSVILVDSQENGVRLVHALMACAEAIQQNNLTLAEALVKQIGCLAVSQAGAMRKVATYFAEALARRIYRLSPPQNQIDHCLSDTLQMHFYETCPYLKFAHFTANQAILEAFEGKKRVHVIDFSMNQGLQWPALMQALALREGGPPTFRLTGIGPPAPDNSDHLHEVGCKLAQLAEAIHVEFEYRGFVANSLADLDASMLELRPSDTEAVAVNSVFELHKLLGRPGGIEKVLGVVKQIKPVIFTVVEQESNHNGPVFLDRFTESLHYYSTLFDSLEGVPNSQDKVMSEVYLGKQICNLVACEGPDRVERHETLSQWGNRFGSSGLAPAHLGSNAFKQASMLLSVFNSGQGYRVEESNGCLMLGWHTRPLITTSAWKLSTAAY
notes: RGA, an Arabidopsis DELLA protein; called the full-length RGA substrate in planta; RGA is O-fucosylated by the co-expressed SPY to differing degrees; also called His-FLAG-RGA; source: N. benthamiana, transient expression by agroinfiltration, in protein extract

Experiments:
[1] = biological target: the molecule itself; assay: cryo-EM 2D class averages; apo SPY, flash-frozen solution; tetramer formed by side-by-side stacking of two SPY dimers
[2] = biological target: the molecule itself; assay: cryo-EM structure; apo SPY, ~0.8 mg/mL, 25 mM HEPES pH 7.5, 150 mM NaCl, 2 mM DTT; three conformations of the dimer at 3.6 to 3.9 Å
[3] = biological target: T1, Myc-spy Δ216 (deletion of residues …); assay: co-IP; FLAG-RGA co-expressed with Myc-SPY, Myc-spy mutants or Myc-GUS in N. benthamiana; IP with anti-cMyc agarose, blots with αMyc and αFLAG; co-IP'ed FLAG-RGA normalised to the IP'ed Myc protein, WT SPY set as 1; conditions: partners not purified

| Binder | stoichiometry N [1] | stoichiometry N [2] | fold change of co-IP'ed FLAG-RGA against WT SPY [3] [fold] |
| --- | --- | --- | --- |
| B1 | 4 | 2 | – |
| B2 | – | – | 6.3 |
